Biological target: T1, His-tagged recombinant human CD163 (R&D Systems, No. 1607-CD-050) (human, UniProt Q86VB7 42-1050, limits assumed)
T1 construct: Bought protein; also called huCD163; not shown: His tag
Assay: ELISA on plate-coated recombinant human CD163 (5 ug/mL), anti-human IgG F(ab')2 HRP
Description: AB101 binding to His-tagged recombinant human CD163 (R&D Systems, No. 1607-CD-050) and recombinant murine CD163 (R&D Systems, No. 7435-CD-050) proteins was determined using ELISA. Recombinant proteins were diluted in PBS to 5 μg/mL and added to 384-well High binding ELISA plates (Greiner Bio-One, No. 781061) at 25 μL per well and incubated at 4° C. overnight. The plates were washed three times with PBS, using the BioTek ELx405 Select microplate washer (wash program ELISA_384_PBS_3×_wash) and then blocked with 90 μL/well of blocking buffer (2% nonfat, dry milk/PBS+0.05% Tween 20) for 1 hr at RT.
After blocking, 25 μL per well of primary antibodies were added to the plates and incubated for 1 hr at room temp. The test antibody was AB101; the control anti-huCD163 antibody was a commercially available antibody in murine IgG1 framework (R&D Systems, #MAB1607); the isotype controls were a proprietary mAb, in human IgG1, human FcNull, and murine IgG1 frameworks, with known specificity. After primary antibody binding, plates were washed three times with PBS using the EL405x (wash program ELISA_384_PBS_3×_wash). […] After development, the reaction was stopped by adding 25 μL per well of 0.3 M HCl and plates were read using the SpectraMax M5e instrument at 450 nm.

T1 sequence (Q86VB7 42-1050 limits assumed): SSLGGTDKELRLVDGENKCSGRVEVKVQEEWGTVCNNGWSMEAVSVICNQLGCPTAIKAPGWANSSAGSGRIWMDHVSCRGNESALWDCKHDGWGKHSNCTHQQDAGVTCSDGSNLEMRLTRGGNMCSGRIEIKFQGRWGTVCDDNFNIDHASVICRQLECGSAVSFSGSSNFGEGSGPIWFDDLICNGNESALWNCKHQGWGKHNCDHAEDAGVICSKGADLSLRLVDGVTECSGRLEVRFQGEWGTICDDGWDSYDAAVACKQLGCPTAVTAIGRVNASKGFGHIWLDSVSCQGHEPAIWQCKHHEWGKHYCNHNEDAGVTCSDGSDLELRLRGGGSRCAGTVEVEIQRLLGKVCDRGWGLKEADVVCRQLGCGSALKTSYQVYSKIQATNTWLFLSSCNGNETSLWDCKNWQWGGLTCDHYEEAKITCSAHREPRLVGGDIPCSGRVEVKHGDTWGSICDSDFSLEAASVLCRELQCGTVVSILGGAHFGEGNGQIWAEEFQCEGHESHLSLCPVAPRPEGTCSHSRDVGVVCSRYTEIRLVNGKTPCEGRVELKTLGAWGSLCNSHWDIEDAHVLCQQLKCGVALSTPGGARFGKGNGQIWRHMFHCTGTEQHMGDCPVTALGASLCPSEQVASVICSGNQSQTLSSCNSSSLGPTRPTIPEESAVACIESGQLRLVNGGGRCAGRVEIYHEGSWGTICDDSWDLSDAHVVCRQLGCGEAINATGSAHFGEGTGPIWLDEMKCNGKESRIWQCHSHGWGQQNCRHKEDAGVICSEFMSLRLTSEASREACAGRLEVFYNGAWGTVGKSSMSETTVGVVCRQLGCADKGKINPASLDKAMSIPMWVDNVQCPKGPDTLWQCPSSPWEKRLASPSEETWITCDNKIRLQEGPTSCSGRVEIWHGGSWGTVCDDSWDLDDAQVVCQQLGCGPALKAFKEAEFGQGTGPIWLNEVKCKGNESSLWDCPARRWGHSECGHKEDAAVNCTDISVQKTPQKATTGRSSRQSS

EC50 (read off the curve): ~1 nM
B1: AB102 (antibody, human IgG1, kappa)
heavy: EVQLVESGGGVVQPGRSLRLSCAASGFTFSSYAMHWVRQAPGKGLEWVAVISYDGSNKYYADSVKGRFTISRDNSKNTLYLQMNSLRAEDTAVYYCARENVRPYYDFWSGYYSEYYYYGMDVWGQGTTVTVSSASTKGPSVFPLAPSSKSTSGGTAALGCLVKDYFPEPVTVSWNSGALTSGVHTFPAVLQSSGLYSLSSVVTVPSSSLGTQTYICNVNHKPSNTKVDKRVEPKSCDKTHTCPPCPAPEFEGGPSVFLFPPKPKDTLMISRTPEVTCVVVDVSHEDPEVKFNWYVDGVEVHNAKTKPREEQYNSTYRVVSVLTVLHQDWLNGKEYKCKVSNKALPASIEKTISKAKGQPREPQVYTLPPSREEMTKNQVSLTCLVKGFYPSDIAVEWESNGQPENNYKTTPPVLDSDGSFFLYSKLTVDKSRWQQGNVFSCSVMHEALHNHYTQKSLSLSPGK
light: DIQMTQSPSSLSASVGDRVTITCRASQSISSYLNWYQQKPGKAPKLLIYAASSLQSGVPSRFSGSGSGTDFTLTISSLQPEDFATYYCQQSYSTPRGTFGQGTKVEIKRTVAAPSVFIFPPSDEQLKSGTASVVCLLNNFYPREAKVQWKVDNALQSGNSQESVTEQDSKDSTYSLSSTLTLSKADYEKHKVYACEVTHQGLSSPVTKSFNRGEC
notes: Biotinylated for the PFA immunoprecipitation and AF647-conjugated for flow cytometry; also called AB101 FcNull antibody; AB101 in FcNull framework

Reference: patent publication US20220289861A1 (ONCORESPONSE, published 2022)
